According to publication PMC2905227 (Journal of the American Chemical Society, 2010):

Tests used:
Assay in all cases: competitive inhibition of enzyme activity
[NO2Y730]-α2(C439A) = biological target: T1, [NO2Y730]-α2(C439A) (E. coli, UniProt P00452 1-761, C439A, 3-nitrotyrosine (NO2Y) in place of Y730)
T1 sequence (looked up): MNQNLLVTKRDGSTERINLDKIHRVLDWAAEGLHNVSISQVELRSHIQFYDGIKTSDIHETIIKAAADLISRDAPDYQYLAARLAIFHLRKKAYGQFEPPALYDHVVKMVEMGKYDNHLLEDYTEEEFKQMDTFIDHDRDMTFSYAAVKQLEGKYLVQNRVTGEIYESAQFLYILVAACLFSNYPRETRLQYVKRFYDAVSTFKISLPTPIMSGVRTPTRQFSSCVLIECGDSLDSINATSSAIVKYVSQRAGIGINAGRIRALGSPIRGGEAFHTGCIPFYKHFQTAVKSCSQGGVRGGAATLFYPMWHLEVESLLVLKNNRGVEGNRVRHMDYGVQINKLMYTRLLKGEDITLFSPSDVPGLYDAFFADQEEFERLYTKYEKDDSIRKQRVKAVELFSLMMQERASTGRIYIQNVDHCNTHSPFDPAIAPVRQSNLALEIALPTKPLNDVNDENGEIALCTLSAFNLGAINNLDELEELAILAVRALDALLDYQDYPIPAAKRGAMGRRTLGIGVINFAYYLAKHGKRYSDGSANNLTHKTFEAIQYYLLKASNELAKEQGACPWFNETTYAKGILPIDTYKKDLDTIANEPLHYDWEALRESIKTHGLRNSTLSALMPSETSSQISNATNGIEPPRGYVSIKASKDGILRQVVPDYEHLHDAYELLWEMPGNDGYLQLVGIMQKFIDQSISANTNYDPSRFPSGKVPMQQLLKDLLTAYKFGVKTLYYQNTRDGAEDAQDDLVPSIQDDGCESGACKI

[NO2Y730]-α2(C439S) = biological target: T2, [NO2Y730]-α2(C439S) (E. coli, UniProt P00452 1-761, C439S, 3-nitrotyrosine (NO2Y) in place of Y730)
T2 sequence (looked up): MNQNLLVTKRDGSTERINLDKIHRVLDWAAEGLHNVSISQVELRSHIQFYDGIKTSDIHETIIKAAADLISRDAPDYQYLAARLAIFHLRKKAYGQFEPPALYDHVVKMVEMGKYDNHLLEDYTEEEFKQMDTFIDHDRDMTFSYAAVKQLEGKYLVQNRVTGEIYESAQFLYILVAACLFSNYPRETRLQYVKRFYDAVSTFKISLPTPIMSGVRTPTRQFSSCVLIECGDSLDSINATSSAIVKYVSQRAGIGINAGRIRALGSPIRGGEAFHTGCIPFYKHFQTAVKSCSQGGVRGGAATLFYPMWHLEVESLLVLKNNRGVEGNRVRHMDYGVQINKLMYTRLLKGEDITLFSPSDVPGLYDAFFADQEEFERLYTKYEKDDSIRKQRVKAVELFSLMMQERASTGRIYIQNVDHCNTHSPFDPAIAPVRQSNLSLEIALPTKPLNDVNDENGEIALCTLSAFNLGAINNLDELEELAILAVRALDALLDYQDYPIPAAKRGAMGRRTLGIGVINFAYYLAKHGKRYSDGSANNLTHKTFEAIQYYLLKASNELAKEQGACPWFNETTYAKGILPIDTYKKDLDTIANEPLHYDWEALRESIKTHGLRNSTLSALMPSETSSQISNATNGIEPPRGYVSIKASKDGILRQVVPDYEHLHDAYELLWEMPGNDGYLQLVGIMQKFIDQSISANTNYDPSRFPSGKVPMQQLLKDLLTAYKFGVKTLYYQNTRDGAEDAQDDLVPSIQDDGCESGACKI

[NO2Y730]-α2(Y731A) = biological target: T3, [NO2Y730]-α2(Y731A) (E. coli, UniProt P00452 1-761, Y731A, 3-nitrotyrosine (NO2Y) in place of Y730)
T3 sequence (looked up): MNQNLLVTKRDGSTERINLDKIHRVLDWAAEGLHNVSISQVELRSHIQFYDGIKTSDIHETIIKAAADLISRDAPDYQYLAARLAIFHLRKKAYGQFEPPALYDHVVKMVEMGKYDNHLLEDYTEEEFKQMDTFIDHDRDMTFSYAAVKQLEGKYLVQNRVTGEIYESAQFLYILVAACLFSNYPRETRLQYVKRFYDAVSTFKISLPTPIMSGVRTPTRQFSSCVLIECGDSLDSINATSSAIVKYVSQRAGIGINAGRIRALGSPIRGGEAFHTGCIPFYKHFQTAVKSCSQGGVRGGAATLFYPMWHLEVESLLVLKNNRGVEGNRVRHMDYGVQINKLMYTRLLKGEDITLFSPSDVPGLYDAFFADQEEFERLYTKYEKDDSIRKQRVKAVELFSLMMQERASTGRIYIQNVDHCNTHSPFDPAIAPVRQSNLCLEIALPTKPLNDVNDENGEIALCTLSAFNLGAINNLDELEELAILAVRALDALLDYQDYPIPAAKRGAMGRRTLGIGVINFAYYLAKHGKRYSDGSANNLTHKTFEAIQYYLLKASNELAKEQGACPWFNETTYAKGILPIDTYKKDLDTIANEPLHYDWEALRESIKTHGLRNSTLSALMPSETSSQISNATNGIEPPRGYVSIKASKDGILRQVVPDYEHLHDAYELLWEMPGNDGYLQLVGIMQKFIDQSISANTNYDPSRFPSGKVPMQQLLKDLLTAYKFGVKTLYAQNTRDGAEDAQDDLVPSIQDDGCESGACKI

Kd ([NO2Y730]-α2(C439A)): 2070 ± 70 nM
Kd ([NO2Y730]-α2(C439S)): 1280 ± 70 nM
Kd ([NO2Y730]-α2(Y731A)): 2710 ± 130 nM
B1: wild-type E. coli ribonucleotide reductase β2 subunit (enzyme, UniProt P69924 1-376, looked up)
chain: MAYTTFSQTKNDQLKEPMFFGQPVNVARYDQQKYDIFEKLIEKQLSFFWRPEEVDVSRDRIDYQALPEHEKHIFISNLKYQTLLDSIQGRSPNVALLPLISIPELETWVETWAFSETIHSRSYTHIIRNIVNDPSVVFDDIVTNEQIQKRAEGISSYYDELIEMTSYWHLLGEGTHTVNGKTVTVSLRELKKKLYLCLMSVNALEAIRFYVSFACSFAFAERELMEGNAKIIRLIARDEALHLTGTQHMLNLLRSGADDPEMAEIAEECKQECYDLFVQAAQQEKDWADYLFRDGSMIGLNKDILCQYVEYITNIRMQAVGLDLPFQTRSNPIPWINTWLVSDNVQVAPQEVEVSSYLVGQIDSEVDTDDLSNFQL
modifications: tyrosyl radical at Y122 (1-1.2 radicals per β2), diferric cluster
